According to patent publication US20110212084A1 (AstraZeneca / MedImmune, published 2011):
Residue numbers refer to the chain shown, from its start.

B1: Antibody 8 (scFv) (scFv, V domains shown)
VH: EVQLLESGGGLVQPGGSLRLSCAAPGFTFSSYAMSWVRQAPGKGLEWVSAISGGSGGRTYYADSVKGRFTISRDNSKNTLYLQMNSLRAEDTAVYYCARHIAVAGTRGFDYWGRGTLVTVSS
VL: SYVLTQPPSVSVSPGQTASITCSGDKLGDTYASWYRQRSGQSPVLVIYQDDKRPSGIPERFSGSNSGNTATLTISGTHTMDEADYYCLAWDTRTSGAVFGGGTKLTVL
notes: purified scFv
B2: Antibody 14 (scFv) (scFv, V domains shown)
VH: EVQLLESGGGLVQPGGSLRLSCAAPGFTFSSYPMSWVRQAPGKGLEWVSAISGSGGSTYYADSVKGRFTISRDNSKNTLYLQMNSLRAEDTAVYYCARHIAVAGTRGFDYWGRGTLVTVSS
VL: B1 VL with Y2F, T5S
notes: purified scFv
B3: Antibody 20 (scFv) (scFv, V domains shown)
VH: B2 VH with P25S, P33A, S57R, H99S, I100T, A101Y, V102F, G104S
VL: B1 VL with T30K
notes: purified scFv
B4: Antibody 21 (scFv) (scFv, V domains shown)
VH: B2 VH with P25S, P33A, S57R, H99L, I100T, A101F, V102P, G104I
VL: B1 VL with T30K
notes: purified scFv
B5: Antibody 10 (IgG) (antibody, V domains shown)
VH: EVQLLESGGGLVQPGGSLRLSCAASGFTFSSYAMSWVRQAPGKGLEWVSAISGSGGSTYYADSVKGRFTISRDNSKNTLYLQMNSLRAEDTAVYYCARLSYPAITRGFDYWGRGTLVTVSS
VL: B1 VL with T30K
B6: Antibody 30 (scFv) (scFv, V domains shown)
VH: B2 VH with P25S, P33A, S57R, H99L, I100S, A101Y, V102P, G104I
VL: B1 VL
notes: purified scFv
B7: Antibody 29 (scFv) (scFv, V domains shown)
VH: B2 VH with P25S, P33A, S57R, H99L, I100T, A101F, V102P, G104I
VL: B1 VL
notes: purified scFv
B8: Antibody 31 (scFv) (scFv, V domains shown)
VH: B2 VH with P25S, P33A, S57R, H99L, I100S, A101Y, V102P, G104I
VL: B1 VL with T30K
notes: purified scFv
B9: Antibody 28 (scFv) (scFv, V domains shown)
VH: B2 VH with P25S, P33A, S57R, H99L, I100W, A101F, V102P, G104I
VL: B1 VL
notes: purified scFv
B10: Antibody 10 (scFv) (scFv, V domains shown)
VH: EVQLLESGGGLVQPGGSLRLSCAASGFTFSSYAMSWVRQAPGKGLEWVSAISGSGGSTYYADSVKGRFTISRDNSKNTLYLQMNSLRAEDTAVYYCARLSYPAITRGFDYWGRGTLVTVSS
VL: B1 VL with T30K
notes: purified scFv
B11: Antibody 34 (scFv) (scFv, V domains shown)
VH: B1 VH with F29L
VL: B1 VL with V12A, S55P, S75R, T106S
notes: purified scFv
B12: Antibody 25 (scFv) (scFv, V domains shown)
VH: B1 VH with V120I
VL: B1 VL with Y2F
notes: purified scFv
B13: Antibody 16 (scFv) (scFv, V domains shown)
VH: B1 VH
VL: B1 VL with K104E
notes: purified scFv
B14: Antibody 5 (scFv) (scFv, V domains shown)
VH: B2 VH with P25S, P33A, S57R
VL: B1 VL with K52R, V107A
notes: purified scFv
B15: Antibody 27 (scFv) (scFv, V domains shown)
VH: B2 VH with P25S, P33A, S57R, H99S, I100T, A101Y, V102F, G104S
VL: B1 VL
notes: purified scFv
B16: Antibody 3 (scFv) (scFv, V domains shown)
VH: B2 VH with P25S, P33A, S57R
VL: B1 VL with N68D
notes: purified scFv
B17: Antibody 13 (scFv) (scFv, V domains shown)
VH: B2 VH with P25S, P33A, S57R, T69A, I70V
VL: B1 VL with K52R
notes: purified scFv
B18: Antibody 11 (scFv) (scFv, V domains shown)
VH: B2 VH with P25S, P33A, S57R, L86P, T118A
VL: B1 VL with T21A
notes: purified scFv
B19: Antibody 33 (scFv) (scFv, V domains shown)
VH: B1 VH with R19S, R73K
VL: B1 VL with Q41L, V44A
notes: purified scFv
B20: Antibody 19 (scFv) (scFv, V domains shown)
VH: B1 VH with P25S, I51V
VL: B1 VL with Y2F, G76R
notes: purified scFv
B21: Antibody 17 (scFv) (scFv, V domains shown)
VH: B1 VH
VL: B1 VL with N68D
notes: purified scFv
B22: Antibody 9 (scFv) (scFv, V domains shown)
VH: B1 VH with P25S
VL: B1 VL with Y2F, T5S
notes: purified scFv
B23: Antibody 22 (scFv) (scFv, V domains shown)
VH: B2 VH with P25S, P33A, S57R, V64A, S85G
VL: B1 VL with A32T, I57V
notes: purified scFv
B24: Antibody 7 (scFv) (scFv, V domains shown)
VH: B2 VH with P25S, P33A, S54G, S57R
VL: B1 VL with V12A
notes: purified scFv
B25: Antibody 6 (scFv) (scFv, V domains shown)
VH: B2 VH with P25S, P33A, S57R, R72K, T115A
VL: B1 VL
notes: purified scFv
B26: Antibody 23 (scFv) (scFv, V domains shown)
VH: B1 VH with P25S, G26E, S30G
VL: B1 VL with T69A
notes: purified scFv
B27: Antibody 2 (scFv) (scFv, V domains shown)
VH: B2 VH with P25S, P33A, S57R
VL: B1 VL with K52R
notes: purified scFv
B28: Antibody 15 (scFv) (scFv, V domains shown)
VH: B1 VH
VL: B1 VL with K52R
notes: purified scFv
B29: Antibody 18 (scFv) (scFv, V domains shown)
VH: B1 VH with P25S, M34V
VL: B1 VL with N68D, H78R
notes: purified scFv
B30: Antibody 36 (scFv) (scFv, V domains shown)
VH: B2 VH with P25S, P33A, S57R
VL: B1 VL with Y2F, V3M, T5S
notes: purified scFv
B31: Antibody 24 (scFv) (scFv, V domains shown)
VH: B1 VH with S121P
VL: B1 VL with Y2F
notes: purified scFv
B32: Antibody 12 (scFv) (scFv, V domains shown)
VH: B2 VH with P25S, P33A, S57R
VL: B1 VL with Y2F, V3M, T5S
notes: purified scFv
B33: Antibody 4 (scFv) (scFv, V domains shown)
VH: B2 VH with P25S, P33A, S57R, L116P
VL: B1 VL with Y2F
notes: purified scFv
B34: Antibody 26 (scFv) (scFv, V domains shown)
VH: B2 VH with P25S, F27L, S31G, P33A, S57R, T78M
VL: B1 VL with Y2F, S75G
notes: purified scFv

Tests used:
[1] = target: T1, cynomolgus IgE (recombinant chimaeric D12 variable region / cynomolgus IgE constant region) (cynomolgus monkey (constant region)); assay: HTRF receptor-ligand competition, scFv titrated; Eu-cryptate cynomolgus IgE binding to human FcεRI-Fc; geomean
T1 construct: also called cyno IgE; cynomolgus IgE (in house HEK-EBNA derived)
Description: (§1) Purified scFv were tested in a receptor-ligand binding HTRF® (Homogeneous Time-Resolved Fluorescence) assay format for inhibition of either human IgE (U266-derived [Ikeyama et. al. 1986. Molecular Immunology 23 (2); p159-167]) or cyno IgE (recombinant, see materials and methods) labelled with europium cryptate (CIS bio International 62EUSPEA), binding to human FcεR1-Fc (in house NS0 cell produced). Example scFv potency data is included in Table 5a
as §1, with “produced).” for “produced). Example scFv potency data is included in Table 5a”

[2] = target: T2, human IgEλ (U266 derived) (human, UniProt P01854 1-546); assay: HTRF receptor-ligand competition, scFv titrated; Eu-cryptate human IgE (U266) binding to human FcεRI-Fc; geomean
Description: as §1
as §1, with “produced).” for “produced). Example scFv potency data is included in Table 5a”

[3] = target: T2, human IgEλ (U266 derived); assay: cell-based or functional assay
[4] = target: T3, human IgE (source not stated for the assay) (human, UniProt P01854-1 1-428); assay: SPR, BIAcore 2000; IgE amine-coupled to CM5 chip, IgG as analyte, bivalent analyte model; geomean
T3 construct: also called purified human IgE; IgE (Calbiochem or U266-derived)
Description: The binding affinity of purified IgG samples of a representative number of clones to human and cynomolgus IgE was determined by surface plasmon resonance using BIAcore 2000 biosensor (BIAcore AB) essentially as described by Karlsson et al 1991; Journal of Immunological Methods 145 (1-2) 229-240. In brief, purified human or cynomolgus IgE was covalently coupled to the surface of a CM5 sensor chip (BIAcore) using standard amine coupling reagents according to the manufacturer's instructions to provide a surface density of 100 RU. IgG samples prepared in HBS-EP buffer (BIAcore (AB), at a range of concentrations, between 250 nM and 15.6 nM were passed over the sensor chip surface. The surface was regenerated using 10 mM Glycine, pH 1.75 between each injection of antibody. The resulting sensorgrams were evaluated using BIA evaluation 3.1 software and fitted to a bivalent analyte model, to provide relative binding data.

[5] = target: T4, human IgEλ (U266 derived) (human, UniProt P01854 1-546); assay: HTRF receptor-ligand competition, scFv titrated; Eu-cryptate human IgE (U266) binding to human FcεRI-Fc; geomean
T4 construct: mature; full-length IgE purified from U266 cells (Ikeyama et al. 1986); labelled with europium cryptate in the HTRF assays; also called human IgE (U266-derived)
Description: as §1
as §1, with “produced).” for “produced). Example scFv potency data is included in Table 5a”

T1 sequence (heavy, as listed by the source limits assumed, chain 1 of 2): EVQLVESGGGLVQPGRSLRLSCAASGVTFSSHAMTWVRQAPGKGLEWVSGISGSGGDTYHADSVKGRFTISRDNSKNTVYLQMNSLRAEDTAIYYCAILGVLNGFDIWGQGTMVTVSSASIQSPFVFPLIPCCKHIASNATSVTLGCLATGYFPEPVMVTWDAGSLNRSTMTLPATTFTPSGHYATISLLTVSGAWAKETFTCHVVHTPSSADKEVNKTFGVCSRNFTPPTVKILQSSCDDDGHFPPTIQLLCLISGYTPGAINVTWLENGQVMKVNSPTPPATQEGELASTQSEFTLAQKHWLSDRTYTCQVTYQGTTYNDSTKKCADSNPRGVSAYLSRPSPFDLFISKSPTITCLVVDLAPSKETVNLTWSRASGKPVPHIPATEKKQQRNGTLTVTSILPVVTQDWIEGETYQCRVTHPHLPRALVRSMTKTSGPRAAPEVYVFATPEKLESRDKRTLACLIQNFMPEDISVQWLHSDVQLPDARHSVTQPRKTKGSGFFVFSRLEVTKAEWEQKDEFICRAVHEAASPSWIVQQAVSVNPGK
T1 sequence (light, as listed by the source limits assumed, chain 2 of 2): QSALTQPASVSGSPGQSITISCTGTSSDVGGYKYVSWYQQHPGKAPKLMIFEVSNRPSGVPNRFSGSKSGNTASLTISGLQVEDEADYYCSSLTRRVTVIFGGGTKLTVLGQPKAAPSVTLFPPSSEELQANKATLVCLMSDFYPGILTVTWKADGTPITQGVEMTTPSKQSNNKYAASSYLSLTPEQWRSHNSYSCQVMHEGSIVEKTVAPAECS
T3 sequence (P01854 other isoform, or with tags, fused parts or gaps): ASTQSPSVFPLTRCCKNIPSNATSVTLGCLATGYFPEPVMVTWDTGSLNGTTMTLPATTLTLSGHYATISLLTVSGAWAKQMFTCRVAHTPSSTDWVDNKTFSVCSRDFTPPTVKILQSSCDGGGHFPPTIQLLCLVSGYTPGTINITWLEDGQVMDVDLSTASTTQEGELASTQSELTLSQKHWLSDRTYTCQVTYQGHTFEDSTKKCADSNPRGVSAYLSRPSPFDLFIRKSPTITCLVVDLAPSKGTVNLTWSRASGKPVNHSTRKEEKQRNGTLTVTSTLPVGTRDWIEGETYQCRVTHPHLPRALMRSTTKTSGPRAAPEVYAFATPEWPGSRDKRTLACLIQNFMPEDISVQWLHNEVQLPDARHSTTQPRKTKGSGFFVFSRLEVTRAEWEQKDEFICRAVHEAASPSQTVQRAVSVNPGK

| Binder | IC50 [1] [nM] | IC50 [2] [nM] | further results |
| --- | --- | --- | --- |
| B1 | 438 | 8 | – |
| B2 | – | 7 | – |
| B3 | – | 5 | – |
| B4 | – | 4 | – |
| B5 | – | – | RBL-ER51 calcium signalling IC50 (nM) Geomean, human IgE 25 ng/ml [3]: 1.5 nM; Kd [4]: 1.3 nM |
| B6 | – | 4 | – |
| B7 | – | 6 | – |
| B8 | – | 9 | – |
| B9 | – | 4 | – |
| B10 | – | – | IC50 [5]: 10 nM |
| B11 | 500 | – | IC50 [5]: 3 nM |
| B12 | 188 | 6 | – |
| B13 | 280 | 10 | – |
| B14 | 356 | 6 | – |
| B15 | 379 | 2 | – |
| B16 | 237 | 5 | – |
| B17 | – | 9 | – |

| Binder | IC50 [1] [nM] | IC50 [2] [nM] | further results |
| --- | --- | --- | --- |
| B18 | – | 7 | – |
| B19 | 533 | – | IC50 [5]: 14 nM |
| B20 | 197 | 9 | – |
| B21 | 264 | 7 | – |
| B22 | 138 | – | IC50 [5]: 6 nM |
| B23 | – | 7 | – |
| B24 | 569 | 8 | – |
| B25 | – | 8 | – |
| B26 | 331 | 7 | – |
| B27 | 398 | 7 | – |
| B28 | 135 | – | IC50 [5]: 4 nM |
| B29 | 129 | 6 | – |
| B30 | 407 | – | IC50 [5]: 8 nM |
| B31 | 196 | 4 | – |
| B32 | 473 | – | IC50 [5]: 8 nM |
| B33 | 600 | 5.4 | – |
| B34 | 359 | 8 | – |
